# Measured values published in patent US20220017605A1 (ICAHN SCHOOL OF MEDICINE AT MOUNT SINAI, published 2022).
# Values joined by “and” are separate entries in the source; they are usually repeats but may differ in a detail not shown here. Identical values can stand only once.
# B1: human monoclonal antibody AA12 (antibody, V domains shown)
# VH: EVQLVESGGGLIQPGGSLRLSCAASGFTVSSNYMSWVRQAPGKGLEWVSVIYSGGSTYYADSVKGRFTISRDNSKNTLYLQMNSLRAEDTAVYYCARDRRGFDYWGQGTMVTVSS
# VL: DIQMTQSPLSLSASVGDRVTITCRTSQSISSYLNWYQQKPGKAPKLLIYAASSLQSGVPSRFSGSGSGTDFTLTISSLQPEDFATYYCQQTYSTPLTFGGGTKVEIK
# Tests used:
# [1] = target: recombinant NS1 protein of Zika virus MR766 (Rhesus/1947/Uganda) with C-terminal hexahistidine tag (Zika virus MR766, UniProt Q32ZE1 791-1142)
# Sequence of recombinant NS1 protein of Zika virus MR766 (Rhesus/1947/Uganda) with C-terminal hexahistidine tag (Q32ZE1 791-1142, tags left off): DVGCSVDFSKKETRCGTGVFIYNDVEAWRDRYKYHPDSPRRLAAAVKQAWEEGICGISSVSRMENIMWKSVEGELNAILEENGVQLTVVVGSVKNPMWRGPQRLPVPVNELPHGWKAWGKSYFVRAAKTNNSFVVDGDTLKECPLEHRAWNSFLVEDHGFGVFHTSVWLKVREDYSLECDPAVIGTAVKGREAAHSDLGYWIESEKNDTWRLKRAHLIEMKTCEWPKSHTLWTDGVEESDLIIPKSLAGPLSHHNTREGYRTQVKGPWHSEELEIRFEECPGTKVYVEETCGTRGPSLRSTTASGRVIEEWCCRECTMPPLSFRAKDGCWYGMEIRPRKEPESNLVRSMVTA
# [2] = target: recombinant NS1 protein of Zika virus PRVABC59 (2015/Puerto Rico) with C-terminal hexahistidine tag (Example … (Zika virus PRVABC59, UniProt A0A024B7W1 795-1146))
# Sequence of recombinant NS1 protein of Zika virus PRVABC59 (2015/Puerto Rico) with C-terminal hexahistidine tag (Example … (A0A024B7W1 795-1146, tags left off): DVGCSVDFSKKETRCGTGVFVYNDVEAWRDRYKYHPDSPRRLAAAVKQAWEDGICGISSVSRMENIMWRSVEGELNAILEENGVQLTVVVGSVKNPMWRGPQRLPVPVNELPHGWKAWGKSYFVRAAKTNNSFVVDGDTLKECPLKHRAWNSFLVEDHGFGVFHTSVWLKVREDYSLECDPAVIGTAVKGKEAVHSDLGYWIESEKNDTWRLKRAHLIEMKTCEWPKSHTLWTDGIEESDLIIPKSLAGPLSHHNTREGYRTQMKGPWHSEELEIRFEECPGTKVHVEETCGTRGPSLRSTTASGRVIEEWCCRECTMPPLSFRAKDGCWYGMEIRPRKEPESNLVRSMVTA
binder,measurement,setting,value
B1,Kd,[1],55.4 nM and 99.8 nM
same,Kd,[2],147 nM and 76.1 nM
